Source: article PMC3433420
Where “and” joins values, the source holds several entries; their conditions need not be identical. Equal values may be shown once. Each block holds one substance with its values, some of them ahead of it.

How the values were obtained:
[1] = target: PTPN6 tandem SH2 domains (human); assay: peptide or protein array; SH2/PTB proteins spotted on aldehyde slides, rhodamine peptide titrated in buffer B (20 mM HEPES, 100 mM KCl, 0.1% Tween-20, 5 mM DTT, pH 7.8), 1 h at room temperature; replicate assays
[2] = target: SHF SH2 domain (human) (UniProt Q7M4L6); assay: as above
[3] = target: SYK tandem SH2 domains (human); assay: as above
[4] = target: NCK1 SH2 domain (human) (UniProt P16333); assay: as above
[5] = target: PTK6 SH2 domain (human) (UniProt Q13882); assay: as above
[6] = target: RASA1 tandem SH2 domains (human); assay: as above
[7] = target: SH2D3C SH2 domain (human) (UniProt Q8N5H7); assay: as above
[8] = target: BTK SH2 domain (human) (UniProt Q06187); assay: as above
[9] = target: YES1 SH2 domain (human) (UniProt P07947); assay: as above
[10] = target: PLCG2 tandem SH2 domains (human); assay: as above
[11] = target: SYK N-terminal SH2 domain (human); assay: as above
[12] = target: HCK SH2 domain (human) (UniProt P08631); assay: as above
[13] = target: BLK SH2 domain (human) (UniProt P51451); assay: as above
[14] = target: SH3BP2 SH2 domain (human) (UniProt P78314); assay: as above
[15] = target: RASA1 N-terminal SH2 domain (human) (UniProt P20936); assay: as above
[16] = target: TNS1 SH2 domain (human) (UniProt Q9HBL0); assay: as above
[17] = target: SYK C-terminal SH2 domain (human); assay: as above
[18] = target: PIK3R2 tandem SH2 domains (human) (UniProt O00459); assay: as above
[19] = target: SH2D3A SH2 domain (human) (UniProt Q9BRG2); assay: as above
[20] = target: BLNK SH2 domain (human) (UniProt Q8WV28); assay: as above
[21] = target: ABL2 SH2 domain (human) (UniProt P42684); assay: as above
[22] = target: SRC SH2 domain (human) (UniProt P12931); assay: as above
[23] = target: TEC SH2 domain (human) (UniProt P42680); assay: as above
[24] = target: SH2D1A SH2 domain (human) (UniProt O60880); assay: as above
[25] = target: ErbB2pY1196 phosphopeptide, rhodamine-labelled (human); assay: fluorescence polarisation; saturation binding in solution: rhodamine peptide fixed at 10 nM, protein titrated 0.002-10 uM, 20 min at room temperature; assay buffer 20 mM HEPES, 100 mM KCl, 0.1% Tween-20, 5 mM DTT, pH 7.8; apparent KD
[26] = target: ErbB2 Y1221 non-phosphorylated peptide, rhodamine-labelled (human); assay: as above
[27] = target: ErbB3pY1307 phosphopeptide, rhodamine-labelled (human); assay: as above
[28] = target: ErbB2 Y735 non-phosphorylated peptide, rhodamine-labelled (human); assay: as above

BLK SH2 domain (human), sequence (P51451 124-220): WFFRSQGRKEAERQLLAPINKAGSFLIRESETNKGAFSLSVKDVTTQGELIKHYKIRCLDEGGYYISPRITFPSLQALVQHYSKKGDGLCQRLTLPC
SH3BP2 SH2 domain (human), sequence (P78314 457-555): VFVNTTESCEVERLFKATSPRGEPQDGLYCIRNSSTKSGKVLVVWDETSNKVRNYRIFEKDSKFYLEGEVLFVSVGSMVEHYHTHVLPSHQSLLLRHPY
YES1 SH2 domain (human), sequence (P07947 158-255): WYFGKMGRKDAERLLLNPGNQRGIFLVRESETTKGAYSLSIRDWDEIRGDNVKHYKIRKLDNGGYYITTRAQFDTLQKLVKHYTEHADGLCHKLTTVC
SHF SH2 domain (human), sequence (Q7M4L6 323-418): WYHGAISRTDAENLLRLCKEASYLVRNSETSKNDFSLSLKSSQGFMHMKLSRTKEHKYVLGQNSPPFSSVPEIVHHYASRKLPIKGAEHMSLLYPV
TEC SH2 domain (human), sequence (P42680 247-345): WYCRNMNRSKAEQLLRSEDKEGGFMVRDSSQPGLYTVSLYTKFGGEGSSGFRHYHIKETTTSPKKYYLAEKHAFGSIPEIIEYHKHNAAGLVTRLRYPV
SH2D1A SH2 domain (human), sequence (O60880 6-104): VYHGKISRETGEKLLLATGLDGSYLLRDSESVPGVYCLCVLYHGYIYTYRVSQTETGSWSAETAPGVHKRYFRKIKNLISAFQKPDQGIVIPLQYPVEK
PIK3R2 tandem SH2 domains (human), sequence (O00459 whole entry, the tested form may be a part): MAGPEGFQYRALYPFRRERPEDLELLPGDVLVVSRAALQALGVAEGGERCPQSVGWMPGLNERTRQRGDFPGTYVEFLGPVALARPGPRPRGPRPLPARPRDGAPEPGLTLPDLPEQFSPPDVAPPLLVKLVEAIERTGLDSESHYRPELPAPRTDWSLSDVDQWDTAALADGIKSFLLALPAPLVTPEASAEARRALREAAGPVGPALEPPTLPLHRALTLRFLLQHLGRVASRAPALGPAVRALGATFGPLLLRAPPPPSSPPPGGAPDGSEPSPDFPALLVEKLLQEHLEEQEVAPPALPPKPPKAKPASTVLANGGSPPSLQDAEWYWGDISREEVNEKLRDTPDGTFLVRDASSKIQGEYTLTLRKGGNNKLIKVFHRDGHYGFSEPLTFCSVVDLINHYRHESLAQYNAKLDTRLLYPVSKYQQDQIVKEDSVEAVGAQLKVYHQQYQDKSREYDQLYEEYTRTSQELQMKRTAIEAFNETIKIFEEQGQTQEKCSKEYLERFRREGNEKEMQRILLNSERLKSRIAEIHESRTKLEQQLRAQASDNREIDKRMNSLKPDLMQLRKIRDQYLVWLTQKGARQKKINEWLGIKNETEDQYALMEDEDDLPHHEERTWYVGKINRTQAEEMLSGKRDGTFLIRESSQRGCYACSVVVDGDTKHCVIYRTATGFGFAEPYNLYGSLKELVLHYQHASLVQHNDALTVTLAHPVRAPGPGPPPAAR
HCK SH2 domain (human), sequence (P08631 144-241): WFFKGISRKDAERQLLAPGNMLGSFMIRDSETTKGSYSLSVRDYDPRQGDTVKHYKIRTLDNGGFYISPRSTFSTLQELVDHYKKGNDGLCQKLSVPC
TNS1 SH2 domain (human), sequence (Q9HBL0 1567-1676): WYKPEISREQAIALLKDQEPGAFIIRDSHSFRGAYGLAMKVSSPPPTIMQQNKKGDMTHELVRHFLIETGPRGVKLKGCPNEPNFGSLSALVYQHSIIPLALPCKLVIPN
PTK6 SH2 domain (human), sequence (Q13882 78-170): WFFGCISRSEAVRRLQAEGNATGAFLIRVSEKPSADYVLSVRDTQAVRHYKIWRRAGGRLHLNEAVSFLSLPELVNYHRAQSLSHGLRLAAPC
BTK SH2 domain (human), sequence (Q06187 281-377): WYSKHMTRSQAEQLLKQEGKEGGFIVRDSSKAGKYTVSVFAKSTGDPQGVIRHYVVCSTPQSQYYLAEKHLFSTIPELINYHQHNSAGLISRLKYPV
RASA1 N-terminal SH2 domain (human), sequence (P20936 whole entry, the tested form may be a part): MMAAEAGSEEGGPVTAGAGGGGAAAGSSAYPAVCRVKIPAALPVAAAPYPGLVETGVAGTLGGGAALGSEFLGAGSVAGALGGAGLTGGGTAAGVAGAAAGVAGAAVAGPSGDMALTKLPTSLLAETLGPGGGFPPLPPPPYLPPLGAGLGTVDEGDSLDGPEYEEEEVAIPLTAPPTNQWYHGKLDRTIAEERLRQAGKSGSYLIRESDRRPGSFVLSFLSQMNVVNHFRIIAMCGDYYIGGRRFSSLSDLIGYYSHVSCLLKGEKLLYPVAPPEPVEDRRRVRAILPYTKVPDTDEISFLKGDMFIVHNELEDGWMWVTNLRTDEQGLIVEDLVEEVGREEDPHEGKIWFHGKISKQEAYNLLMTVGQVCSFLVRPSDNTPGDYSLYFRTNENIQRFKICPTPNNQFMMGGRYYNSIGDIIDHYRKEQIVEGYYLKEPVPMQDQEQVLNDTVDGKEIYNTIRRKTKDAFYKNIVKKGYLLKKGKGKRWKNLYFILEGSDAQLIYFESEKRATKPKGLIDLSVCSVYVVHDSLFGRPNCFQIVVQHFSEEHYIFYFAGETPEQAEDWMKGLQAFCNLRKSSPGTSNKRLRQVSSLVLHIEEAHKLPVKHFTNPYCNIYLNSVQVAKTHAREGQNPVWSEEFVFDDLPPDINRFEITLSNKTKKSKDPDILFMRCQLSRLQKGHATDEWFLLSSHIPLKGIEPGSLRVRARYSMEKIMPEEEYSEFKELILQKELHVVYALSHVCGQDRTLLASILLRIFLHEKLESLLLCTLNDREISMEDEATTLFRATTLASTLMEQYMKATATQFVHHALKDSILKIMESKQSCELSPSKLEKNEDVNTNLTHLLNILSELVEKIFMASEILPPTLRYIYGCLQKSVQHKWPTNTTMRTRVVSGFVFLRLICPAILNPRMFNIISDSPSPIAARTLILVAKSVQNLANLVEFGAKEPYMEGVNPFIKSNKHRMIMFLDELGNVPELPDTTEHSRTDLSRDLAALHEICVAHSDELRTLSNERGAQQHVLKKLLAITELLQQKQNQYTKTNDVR
ABL2 SH2 domain (human), sequence (P42684 173-263): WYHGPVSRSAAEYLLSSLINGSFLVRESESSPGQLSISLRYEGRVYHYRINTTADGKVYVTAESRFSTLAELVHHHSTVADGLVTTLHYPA
SH2D3A SH2 domain (human), sequence (Q9BRG2 15-114): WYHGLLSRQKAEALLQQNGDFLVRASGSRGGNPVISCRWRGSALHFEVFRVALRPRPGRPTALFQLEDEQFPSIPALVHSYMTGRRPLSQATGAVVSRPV
SH2D3C SH2 domain (human), sequence (Q8N5H7 220-319): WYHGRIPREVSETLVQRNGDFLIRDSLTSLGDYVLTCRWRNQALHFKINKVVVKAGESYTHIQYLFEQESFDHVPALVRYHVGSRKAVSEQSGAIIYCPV
BLNK SH2 domain (human), sequence (Q8WV28 346-453): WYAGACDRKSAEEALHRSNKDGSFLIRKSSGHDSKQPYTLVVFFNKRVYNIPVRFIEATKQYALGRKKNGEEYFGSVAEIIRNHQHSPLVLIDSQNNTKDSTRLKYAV

Kd [1]: 5.42 µM | Kd [2]: 0.933 µM and 4.39 µM | Kd [3]: 0.59 µM and 0.805 µM | Kd [4]: 5.29 µM | Kd [5]: 0.801 µM | Kd [6]: 81.9 µM | Kd [7]: 27.4 µM | Kd [8]: 1.53 µM | Kd [9]: 0.526 µM and 1.6 µM | Kd [10]: 0.577 µM and 2.9 µM and 1.01 µM | Kd [11]: 0.801 µM and 3.03 µM | Kd [12]: 0.888 µM | Kd [13]: 0.803 µM and 0.801 µM and 0.511 µM | Kd [14]: 3.86 µM and 1.6 µM and 0.634 µM | Kd [15]: 3.46 µM | Kd [16]: 1.6 µM | Kd [17]: 0.91 µM | Kd [18]: 1.47 µM | Kd [19]: 0.773 µM | Kd [20]: 46.8 µM | Kd [21]: 1.02 µM | Kd [22]: 1.21 µM | Kd [23]: 3.22 µM and 8.7 µM | Kd [24]: 0.748 µM and 1.63 µM
Substance: ErbB2 pY735 phosphopeptide, rhodamine-labelled, for protein microarrays

Kd [25]: 1.86 µM | Kd [26]: 3.69 µM | Kd [27]: 1.88 µM
Substance: RASA1 N-terminal SH2 domain (from UniProt P20936 1-1047) (domain or fragment)

Kd [28]: 14.9 µM
Substance: ZAP70 C-terminal SH2 domain (from UniProt P43403 1-619) (domain or fragment)
